In US20250145723A1 (MINGHUI PHARMACEUTICAL HANGZHOU, published 2025):

B1: 5115-H1-M1-Fc (Fc fusion)
chain: EVQLVESGGGLVQPGGSLRLSCAASGRTFSSFVMSWFRQAPGKEREFVSAISGSGSRSRYADSVKGRFTISRDNSKNTLYLQMNSLRAEDTAVYYCAANPRRATPDYTQYAYWGQGTLVTVSS
notes: VHH-Fc; Fc not specified; not shown: Fc
B2: 5115-H1-M4-Fc (Fc fusion)
chain: EVQLVESGGGLVQPGGSLRLSCAASGRFFSSFVMSWFRQAPGKEREFVSAISGSGSRFRYADSVKGRFTISRDNSKNTLYLQMNSLRAEDTAVYYCAANPRRATPDYTQYAYWGQGTLVTVSS
notes: as for B1
B3: 5115-H1-M16-Fc (Fc fusion)
chain: EVQLVESGGGLVQPGGSLRLSCAASHRTFSSFVMSWFRQAPGKEREFVSAISGSGSRARYADSVKGRFTISRDNSKNTLYLQMNSLRAEDTAVYYCAANPRRATPDLTQYAYWGQGTLVTVSS
notes: as for B1
B4: 5115-H1-M25-Fc (Fc fusion)
chain: EVQLVESGGGLVQPGGSLRLSCAASGRFFSSFVMSWFRQAPGKEREFVSAISGSGSRARYADSVKGRFTISRDNSKNTLYLQMNSLRAEDTAVYYCAANPRRATPDYSQYAYWGQGTLVTVSS
notes: as for B1
B5: 5115-H1-M7-Fc (Fc fusion)
chain: EVQLVESGGGLVQPGGSLRLSCAASGRTFSSFVMSWFRQAPGKEREFVSAISGRGSRAYYADSVKGRFTISRDNSKNTLYLQMNSLRAEDTAVYYCAANPRRATPDLRQYAYWGQGTLVTVSS
notes: as for B1
B6: 5115-H1-M5-Fc (Fc fusion)
chain: EVQLVESGGGLVQPGGSLRLSCAASGRYFSSFVMAWFRQAPGKGLEFVSAISGSGLRARYADSVKGRFTISRDNSKNTLYLQMNSLRAEDTAVYYCAANPRRATPDLTSYAYWGQGTLVTVSS
notes: as for B1
B7: 5115-H1-M2-Fc (Fc fusion)
chain: EVQLVESGGGLVQPGGSLRLSCAASGRTFSSFVMSWFRQAPGKEREFVSAISGSGSRARYADSVKGRFTISRDNSKNTLYLQMNSLRAEDTAVYYCAANPRRATPDLLQYAYWGQGTLVTVSS
notes: as for B1
B8: 5115-H1-M27-Fc (Fc fusion)
chain: EVQLVESGGGLVQPGGSLRLSCAASGRTLSSFVMAWFRQAPGKGLEFVSAISGSGLRARYADSVKGRFTISRDNSKNTLYLQMNSLRAEDTAVYYCAANPRYATPDLTQYAYWGQGTLVTVSS
notes: as for B1
B9: 5115-H1-M22-Fc (Fc fusion)
chain: EVQLVESGGGLVQPGGSLRLSCAASGRTFSSFVMSWFRQAPGKEREFVSAISGSGSRSRYADSVKGRFTISRDNSKNTLYLQMNSLRAEDTAVYYCAANPRRATPDLLQYAYWGQGTLVTVSS
notes: as for B1
B10: 5115-H1-M6-Fc (Fc fusion)
chain: EVQLVESGGGLVQPGGSLRLSCAASGREFSSFVMAWFRQAPGKGLEFVSAISGSGSRARYADSVKGRFTISRDNSKNTLYLQMNSLRAEDTAVYYCAANPRRATPDLTSYAYWGQGTLVTVSS
notes: as for B1
B11: 5115-H1-M34-Fc (Fc fusion)
chain: EVQLVESGGGLVQPGGSLRLSCAASGRTFSSFVMSWFRQAPGKEREFVSAISGSGSRMRYADSVKGRFTISRDNSKNTLYLQMNSLRAEDTAVYYCAANPRRATPDMRQYAYWGQGTLVTVSS
notes: as for B1
B12: 5115-H1-M15-Fc (Fc fusion)
chain: EVQLVESGGGLVQPGGSLRLSCAASGRTFSSFVMSWFRQAPGKEREFVSAISGSGSRMRYADSVKGRFTISRDNSKNTLYLQMNSLRAEDTAVYYCAANPRRATPDLRQYAYWGQGTLVTVSS
notes: as for B1
B13: 5115-H1-M26-Fc (Fc fusion)
chain: EVQLVESGGGLVQPGGSLRLSCAASGRTFSSFVMSWFRQAPGKEREFVSAISGSGSRYTYADSVKGRFTISRDNSKNTLYLQMNSLRAEDTAVYYCAANPRRATPDLMQYAYWGQGTLVTVSS
notes: as for B1
B14: 5115-H1-M9-Fc (Fc fusion)
chain: EVQLVESGGGLVQPGGSLRLSCAASGRTFSSFVMSWFRQAPGKEREFVSAISGSGSRLRYADSVKGRFTISRDNSKNTLYLQMNSLRAEDTAVYYCAANPRRATPDLLQYAYWGQGTLVTVSS
notes: as for B1
B15: 5115-H1-M24-Fc (Fc fusion)
chain: EVQLVESGGGLVQPGGSLRLSCAASGRTFSGFVMAWFRQAPGKGLEFVSAISGTGSRARYADSVKGRFTISRDNSKNTLYLQMNSLRAEDTAVYYCAANPRRATPDLTQYAYWGQGTLVTVSS
notes: as for B1
B16: 5115-H1-M33-Fc (Fc fusion)
chain: EVQLVESGGGLVQPGGSLRLSCAASMPTFSSFVMSWFRQAPGKEREFVSAISGSGSRSRYADSVKGRFTISRDNSKNTLYLQMNSLRAEDTAVYYCAANPRRATPDYTQYAYWGQGTLVTVSS
notes: as for B1
B17: 5115-H1-M12-Fc (Fc fusion)
chain: EVQLVESGGGLVQPGGSLRLSCAASGRTFSSFVMSWFRQAPGKEREFVSAISGSGSRARYADSVKGRFTISRDNSKNTLYLQMNSLRAEDTAVYYCAANPRRATPDLRQYAYWGQGTLVTVSS
notes: as for B1
B18: 5115-H1-M19-Fc (Fc fusion)
chain: EVQLVESGGGLVQPGGSLRLSCAASGRTFSSFVMSWFRQAPGKEREFVSAISGSGSRMRYADSVKGRFTISRDNSKNTLYLQMNSLRAEDTAVYYCAANPRRATPDLHQYAYWGQGTLVTVSS
notes: as for B1
B19: 5115-H1-M29-Fc (Fc fusion)
chain: EVQLVESGGGLVQPGGSLRLSCAASGRTFSSFVMSWFRQAPGKEREFVSAISGSGSRAYYADSVKGRFTISRDNSKNTLYLQMNSLRAEDTAVYYCAANPRRATPDLRQYAYWGQGTLVTVSS
notes: as for B1
B20: 5115-H1-M8-Fc (Fc fusion)
chain: EVQLVESGGGLVQPGGSLRLSCAASGRTFSSFVMSWFRQAPGKEREFVSAISGSGSRQRYADSVKGRFTISRDNSKNTLYLQMNSLRAEDTAVYYCAANPRRATPDLSQYAYWGQGTLVTVSS
notes: as for B1
B21: 5115-H1-M31-Fc (Fc fusion)
chain: EVQLVESGGGLVQPGGSLRLSCAASGRTFSSFVMSWFRQAPGKEREFVSAISGSGSRARYADSVKGRFTISRDNSKNTLYLQMNSLRAEDTAVYYCAANPRRATPDMRQYAYWGQGTLVTVSS
notes: as for B1
B22: 5115-H1-M18-Fc (Fc fusion)
chain: EVQLVESGGGLVQPGGSLRLSCAASGRRFSSFVMSWFRQAPGKEREFVSAISGSGSRARYADSVKGRFTISRDNSKNTLYLQMNSLRAEDTAVYYCAANPRRATPDLTQYAYWGQGTLVTVSS
notes: as for B1
B23: 5115-H1-M20-Fc (Fc fusion)
chain: EVQLVESGGGLVQPGGSLRLSCAASGRTFRSFVMSWFRQAPGKEREFVSAISGSGSRYRYADSVKGRFTISRDNSKNTLYLQMNSLRAEDTAVYYCAANPRRATPDYTQYAYWGQGTLVTVSS
notes: as for B1
B24: 5115-H1-M28-Fc (Fc fusion)
chain: EVQLVESGGGLVQPGGSLRLSCAASGRTFSSFVMSWFRQAPGKEREFVSAISGSGSRYRYADSVKGRFTISRDNSKNTLYLQMNSLRAEDTAVYYCAANPRRATPDLKQYAYWGQGTLVTVSS
notes: as for B1
B25: 5115-H1-M14-Fc (Fc fusion)
chain: EVQLVESGGGLVQPGGSLRLSCAASGRTFSSFVMSWFRQAPGKEREFVSAISGSGSRMRYADSVKGRFTISRDNSKNTLYLQMNSLRAEDTAVYYCAANPRRATPDLTQYAYWGQGTLVTVSS
notes: as for B1
B26: 5115-H1-M23-Fc (Fc fusion)
chain: EVQLVESGGGLVQPGGSLRLSCAASGRTFKSFVMSWFRQAPGKEREFVSAISGSGSRARYADSVKGRFTISRDNSKNTLYLQMNSLRAEDTAVYYCAANPRRATPDMTQYAYWGQGTLVTVSS
notes: as for B1
B27: 5115-H1-M21-Fc (Fc fusion)
chain: EVQLVESGGGLVQPGGSLRLSCAASGKTFSSFVMSWFRQAPGKEREFVSAISGSGSRTRYADSVKGRFTISRDNSKNTLYLQMNSLRAEDTAVYYCAANPRRATPDYTQYAYWGQGTLVTVSS
notes: as for B1
B28: 5115-H1-M11-Fc (Fc fusion)
chain: EVQLVESGGGLVQPGGSLRLSCAASGIRFSSFVMSWFRQAPGKEREFVSAISGSGSRHRYADSVKGRFTISRDNSKNTLYLQMNSLRAEDTAVYYCAANPRRATPDYTQYAYWGQGTLVTVSS
notes: as for B1
B29: 5115-H1-M13-Fc (Fc fusion)
chain: EVQLVESGGGLVQPGGSLRLSCAASLGTFSSFVMSWFRQAPGKEREFVSAISGSGSRARYADSVKGRFTISRDNSKNTLYLQMNSLRAEDTAVYYCAANPRRATPDYTQYAYWGQGTLVTVSS
notes: as for B1
B30: 5115-H1-M30-Fc (Fc fusion)
chain: EVQLVESGGGLVQPGGSLRLSCAASGARFSSFVMSWFRQAPGKEREFVSAISGSGSRHRYADSVKGRFTISRDNSKNTLYLQMNSLRAEDTAVYYCAANPRRATPDYTQYAYWGQGTLVTVSS
notes: as for B1
B31: 5115-H1-M32-Fc (Fc fusion)
chain: EVQLVESGGGLVQPGGSLRLSCAASGRARSSFVMSWFRQAPGKEREFVSAISGSGSRVRYADSVKGRFTISRDNSKNTLYLQMNSLRAEDTAVYYCAANPRRATPDYTQYAYWGQGTLVTVSS
notes: as for B1

molecular target: T1, recombinant human IGF-1R-his (human, UniProt P08069 31-932); assay: ELISA, coated hIGF-1R-his
T1 construct: Recombinant his-tagged protein; also called hIGF-1R-his; hIGF1R-his; not shown: his tag
Protocol: The binding activity of the nanobody-Fc fusion proteins obtained after two rounds of mutant construction with the antigen proteins (recombinant human IGF-1R-His) was detected by an ELISA method: 2 μg/mL recombinant human IGF1R-His antigen proteins were added to a 96-well ELISA plate, at 30 μL/well, for coating overnight at 4° C. The plate was washed three times with PBST. PBS containing 5% skim milk powder was added for blocking at room temperature for 2 h. The plate was washed three times with PBST. The nanobody-Fc fusion proteins were serially diluted 3-fold, and the nanobody-Fc fusion proteins of different concentrations were added to each well at 30 μL/well and incubated at room temperature for 1 h. The plate was washed three times with PBST, and horseradish peroxidase-labeled anti-human Fc antibodies were added at 30 μL/well and incubated at room temperature for 50 min. The plate was washed three times with PBST. TMB substrate solution was added at 30 μL/well for color development in the dark for 1-5 min, 30 μL of 2 M hydrochloric acid was added to terminate the reaction, and the OD₄₅₀ was read using a microplate reader. Curve fitting was conducted and the EC₅₀ value was calculated using Graphpad Prism software.

T1 sequence (P08069 31-932 limits assumed): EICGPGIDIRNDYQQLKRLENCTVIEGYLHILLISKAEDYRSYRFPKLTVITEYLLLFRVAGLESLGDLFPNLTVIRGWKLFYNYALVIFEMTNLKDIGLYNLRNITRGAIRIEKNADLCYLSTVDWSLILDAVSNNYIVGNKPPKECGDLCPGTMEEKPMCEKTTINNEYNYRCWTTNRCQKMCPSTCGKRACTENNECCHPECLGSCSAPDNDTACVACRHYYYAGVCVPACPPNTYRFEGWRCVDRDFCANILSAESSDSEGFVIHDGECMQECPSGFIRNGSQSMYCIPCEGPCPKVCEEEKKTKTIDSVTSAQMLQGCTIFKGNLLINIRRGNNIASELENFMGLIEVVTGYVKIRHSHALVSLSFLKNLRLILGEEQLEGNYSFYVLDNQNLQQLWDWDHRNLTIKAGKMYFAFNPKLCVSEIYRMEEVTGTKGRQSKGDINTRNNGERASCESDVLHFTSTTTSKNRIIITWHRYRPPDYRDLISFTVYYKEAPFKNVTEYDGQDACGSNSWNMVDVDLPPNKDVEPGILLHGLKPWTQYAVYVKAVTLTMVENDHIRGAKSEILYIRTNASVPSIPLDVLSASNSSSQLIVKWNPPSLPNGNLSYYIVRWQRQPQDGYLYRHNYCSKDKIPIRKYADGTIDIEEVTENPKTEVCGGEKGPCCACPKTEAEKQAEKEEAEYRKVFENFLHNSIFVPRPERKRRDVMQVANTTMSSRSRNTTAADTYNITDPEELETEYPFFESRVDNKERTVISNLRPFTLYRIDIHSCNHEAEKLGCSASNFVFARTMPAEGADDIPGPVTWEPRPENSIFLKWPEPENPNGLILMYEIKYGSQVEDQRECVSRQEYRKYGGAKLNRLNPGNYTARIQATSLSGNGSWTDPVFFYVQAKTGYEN

**Q.** Which EC50 does the source give for B1 here?
**A.** 1.22 ng/mL

**Q.** For B2, which EC50 is on record?
**A.** 1.94 ng/mL

**Q.** With B3 as the binder, how does the EC50 read?
**A.** 3.61 ng/mL

**Q.** With B4 as the binder, how does the EC50 read?
**A.** 1.33 ng/mL

**Q.** B5 was tested. Which EC50 did it give?
**A.** 3.04 ng/mL

**Q.** B6 was tested. Which EC50 did it give?
**A.** 5.88 ng/mL

**Q.** B7 was tested. Which EC50 did it give?
**A.** 1.5 ng/mL

**Q.** B8 was tested. Which EC50 did it give?
**A.** 1.79 ng/mL

**Q.** With B9 as the binder, how does the EC50 read?
**A.** 1.79 ng/mL

**Q.** B10 was tested. Which EC50 did it give?
**A.** 2.62 ng/mL

**Q.** Which EC50 does the source give for B11 here?
**A.** 2.05 ng/mL

**Q.** With B12 as the binder, how does the EC50 read?
**A.** 2.67 ng/mL

**Q.** With B13 as the binder, how does the EC50 read?
**A.** 1.52 ng/mL

**Q.** For B14, which EC50 is on record?
**A.** 2.3 ng/mL

**Q.** How did the EC50 turn out when B15 was run?
**A.** 1.83 ng/mL

**Q.** How did the EC50 turn out when B16 was run?
**A.** 1.15 ng/mL

**Q.** B17 was tested. Which EC50 did it give?
**A.** 1.41 ng/mL

**Q.** How did the EC50 turn out when B18 was run?
**A.** 1.93 ng/mL

**Q.** B19 was tested. Which EC50 did it give?
**A.** 1.62 ng/mL

**Q.** With B20 as the binder, how does the EC50 read?
**A.** 2 ng/mL

**Q.** With B21 as the binder, how does the EC50 read?
**A.** 1.84 ng/mL

**Q.** B22 was tested. Which EC50 did it give?
**A.** 2.89 ng/mL

**Q.** Which EC50 does the source give for B23 here?
**A.** 2.21 ng/mL

**Q.** Which EC50 does the source give for B24 here?
**A.** 1.18 ng/mL

**Q.** How did the EC50 turn out when B25 was run?
**A.** 4.31 ng/mL

**Q.** For B26, which EC50 is on record?
**A.** 1.74 ng/mL

**Q.** B27 was tested. Which EC50 did it give?
**A.** 3.35 ng/mL

**Q.** B28 was tested. Which EC50 did it give?
**A.** 2.51 ng/mL

**Q.** Which EC50 does the source give for B29 here?
**A.** 2.9 ng/mL

**Q.** For B30, which EC50 is on record?
**A.** 2.45 ng/mL

**Q.** With B31 as the binder, how does the EC50 read?
**A.** 1.58 ng/mL
